Measurements taken from IntAct's records for PubMed 20224574.

B1: Nibrin (Homo sapiens), O60934 (parent)
chain: MWKLLPAAGPAGGEPYRLLTGVEYVVGRKNCAILIENDQSISRNHAVLTANFSVTNLSQTDEIPVLTLKDNSKYGTFVNEEKMQNGFSRTLKSGDGITFGVFGSKFRIEYEPLVACSSCLDVSGKTALNQAILQLGGFTVNNWTEECTHLVMVSVKVTIKTICALICGRPIVKPEYFTEFLKAVESKKQPPQIESFYPPLDEPSIGSKNVDLSGRQERKQIFKGKTFIFLNAKQHKKLSSAVVFGGGEARLITEENEEEHNFFLAPGTCVVDTGITNSQTLIPDCQKKWIQSIMDMLQRQGLRPIPEAEIGLAVIFMTTKNYCDPQGHPSTGLKTTTPGPSLSQGVSVDEKLMPSAPVNTTTYVADTESEQADTWDLSERPKEIKVSKMEQKFRMLSQDAPTVKESCKTSSNNNSMVSNTLAKMRIPNYQLSPTKLPSINKSKDRASQQQQTNSIRNYFQPSTKKRERDEENQEMSSCKSARIETSCSLLEQTQPATPSLWKNKEQHLSENEPVDTNSDNNLFTDTDLKSIVKNSASKSHAAEKLRSNKKREMDDVAIEDEVLEQLFKDTKPELEIDVKVQKQEEDVNVRKRPRMDIETNDTFSDEAVPESSKISQENEIGKKRELKEDSLWSAKEISNNDKLQDDSEMLPKKLLLTEFRSLVIKNSTSRNPSGINDDYGQLKNFKKFKKVTYPGAGKLPHIIGGSDLIAHHARKNTELEEWLRQEMEVQNQHAKEESLADDLFRYNPYLKRRR

How the values were obtained:
Conditions in all cases: with mdc1_human MDC1, Q14676
mdc1_human MDC1, Q14676 [1] = variants of: B1
mdc1_human MDC1, Q14676 [2] = variants of: B1; remark: listed apart in the source
mdc1_human MDC1, Q14676 [3] = variants of: B1; remark: listed apart in the source

Chain of mdc1_human MDC1, Q14676 (Q14676 whole entry): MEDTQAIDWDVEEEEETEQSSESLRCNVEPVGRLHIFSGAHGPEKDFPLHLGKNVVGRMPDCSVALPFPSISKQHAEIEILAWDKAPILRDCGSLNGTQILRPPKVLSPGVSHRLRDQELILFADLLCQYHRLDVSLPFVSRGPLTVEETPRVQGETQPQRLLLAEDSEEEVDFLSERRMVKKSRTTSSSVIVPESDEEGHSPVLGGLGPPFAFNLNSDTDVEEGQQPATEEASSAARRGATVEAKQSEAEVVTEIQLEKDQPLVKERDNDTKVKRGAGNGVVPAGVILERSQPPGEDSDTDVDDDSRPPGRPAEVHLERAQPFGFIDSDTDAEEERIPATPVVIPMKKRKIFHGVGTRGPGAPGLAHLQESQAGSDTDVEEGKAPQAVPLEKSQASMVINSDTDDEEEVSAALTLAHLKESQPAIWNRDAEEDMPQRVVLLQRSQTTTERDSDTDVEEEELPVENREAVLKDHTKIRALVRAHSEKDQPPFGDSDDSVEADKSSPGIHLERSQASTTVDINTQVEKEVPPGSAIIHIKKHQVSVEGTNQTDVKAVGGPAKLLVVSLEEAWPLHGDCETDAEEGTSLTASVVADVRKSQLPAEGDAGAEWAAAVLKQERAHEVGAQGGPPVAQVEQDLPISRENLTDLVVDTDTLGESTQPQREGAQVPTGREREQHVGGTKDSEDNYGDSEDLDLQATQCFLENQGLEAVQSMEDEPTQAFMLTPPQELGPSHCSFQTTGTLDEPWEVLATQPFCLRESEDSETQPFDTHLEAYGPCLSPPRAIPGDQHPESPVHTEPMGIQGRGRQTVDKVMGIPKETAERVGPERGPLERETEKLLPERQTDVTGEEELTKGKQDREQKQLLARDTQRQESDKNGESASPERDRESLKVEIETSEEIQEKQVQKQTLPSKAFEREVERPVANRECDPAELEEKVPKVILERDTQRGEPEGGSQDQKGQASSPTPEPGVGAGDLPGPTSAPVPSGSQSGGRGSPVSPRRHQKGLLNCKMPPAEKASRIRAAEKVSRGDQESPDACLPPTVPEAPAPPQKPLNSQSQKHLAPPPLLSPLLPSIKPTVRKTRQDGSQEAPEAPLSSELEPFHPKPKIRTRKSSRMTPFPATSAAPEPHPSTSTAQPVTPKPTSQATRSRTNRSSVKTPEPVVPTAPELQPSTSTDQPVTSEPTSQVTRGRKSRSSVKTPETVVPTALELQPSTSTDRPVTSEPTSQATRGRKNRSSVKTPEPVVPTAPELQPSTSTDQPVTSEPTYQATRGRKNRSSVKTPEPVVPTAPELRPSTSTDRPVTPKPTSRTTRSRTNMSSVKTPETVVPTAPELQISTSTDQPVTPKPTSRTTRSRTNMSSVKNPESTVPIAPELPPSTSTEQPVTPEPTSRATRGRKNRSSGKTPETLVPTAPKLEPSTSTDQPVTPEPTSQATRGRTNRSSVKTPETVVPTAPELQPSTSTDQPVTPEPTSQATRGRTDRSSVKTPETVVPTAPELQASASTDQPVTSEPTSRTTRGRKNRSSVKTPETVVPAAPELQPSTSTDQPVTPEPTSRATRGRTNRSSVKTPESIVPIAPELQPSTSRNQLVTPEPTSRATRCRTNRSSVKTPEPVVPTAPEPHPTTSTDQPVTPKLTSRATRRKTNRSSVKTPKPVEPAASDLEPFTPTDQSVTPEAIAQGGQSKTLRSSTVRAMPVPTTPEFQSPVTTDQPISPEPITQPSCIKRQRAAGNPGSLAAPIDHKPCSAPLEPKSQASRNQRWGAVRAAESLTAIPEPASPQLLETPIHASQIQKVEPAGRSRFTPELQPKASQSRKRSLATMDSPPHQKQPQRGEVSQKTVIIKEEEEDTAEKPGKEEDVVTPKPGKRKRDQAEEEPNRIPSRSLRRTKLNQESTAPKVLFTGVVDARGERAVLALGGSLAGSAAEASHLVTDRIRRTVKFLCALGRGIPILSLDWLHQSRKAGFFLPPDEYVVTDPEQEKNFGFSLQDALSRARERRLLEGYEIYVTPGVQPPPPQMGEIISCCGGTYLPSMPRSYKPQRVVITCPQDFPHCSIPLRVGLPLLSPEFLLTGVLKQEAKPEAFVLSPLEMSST

Variant | effect of a mutation on the interaction (mdc1_human MDC1, Q14676 [1]) | effect of a mutation on the interaction (mdc1_human MDC1, Q14676 [2]) | effect of a mutation on the interaction (mdc1_human MDC1, Q14676 [3])
R28A | decreasing interaction | disrupting interaction | 
K160M |  | disrupting interaction | decreasing interaction
